# Patent US20110287512
# Test system: ZFP7263 linker TQRPQIPPKP (artificial)
# Assay: not given
# Details: not given
row,Sequence,binding signal (normalized ELISA)
1,TTAGCCACTCTGGTGGAAGTGTATC (double strand) [7263 target gap G],2.86
2,TTAGCCACTCTGCTGGAAGTGTATC (double strand) [7263 target gap C],1
3,TTAGCCACTCTGATGGAAGTGTATC (double strand) [7263 target gap A],1.66

# Test system: ZFP7263 linker TGEGGKP (artificial)
# Assay: not given
# Details: not given
row,Sequence,binding signal (normalized ELISA)
1,TTAGCCACTCTGGTGGAAGTGTATC (double strand) [7263 target gap G],0.05
2,TTAGCCACTCTGCTGGAAGTGTATC (double strand) [7263 target gap C],0.02
3,TTAGCCACTCTGATGGAAGTGTATC (double strand) [7263 target gap A],0.02

# Test system: ZFP7263 linker LRQKDERP (artificial)
# Assay: not given
# Details: not given
row,Sequence,binding signal (normalized ELISA)
1,TTAGCCACTCTGGTGGAAGTGTATC (double strand) [7263 target gap G],0.18
2,TTAGCCACTCTGCTGGAAGTGTATC (double strand) [7263 target gap C],0.02
3,TTAGCCACTCTGATGGAAGTGTATC (double strand) [7263 target gap A],0.03

# Test system: ZFP7263 linker TPRPPIPKP (artificial)
# Assay: not given
# Details: not given
row,Sequence,binding signal (normalized ELISA)
1,TTAGCCACTCTGGTGGAAGTGTATC (double strand) [7263 target gap G],1.85
2,TTAGCCACTCTGCTGGAAGTGTATC (double strand) [7263 target gap C],0.67
3,TTAGCCACTCTGATGGAAGTGTATC (double strand) [7263 target gap A],0.97

# Test system: ZFP7263 linker TPLCQRPMKQKP (artificial)
# Assay: not given
# Details: not given
row,Sequence,binding signal (normalized ELISA)
1,TTAGCCACTCTGGTGGAAGTGTATC (double strand) [7263 target gap G],3.44
2,TTAGCCACTCTGCTGGAAGTGTATC (double strand) [7263 target gap C],1.28
3,TTAGCCACTCTGATGGAAGTGTATC (double strand) [7263 target gap A],1.82

# Test system: ZFP7263 (host, center linker TGSQKP) (artificial)
# Assay: not given
# Details: not given
row,Sequence,binding signal (normalized ELISA)
1,TTAGCCACTCTGGTGGAAGTGTATC (double strand) [7263 target gap G],0.03
2,TTAGCCACTCTGCTGGAAGTGTATC (double strand) [7263 target gap C],0.01
3,TTAGCCACTCTGATGGAAGTGTATC (double strand) [7263 target gap A],0.01

# Test system: ZFP7263 linker TPNRCPPTKP (artificial)
# Assay: not given
# Details: not given
row,Sequence,binding signal (normalized ELISA)
1,TTAGCCACTCTGGTGGAAGTGTATC (double strand) [7263 target gap G],2.62
2,TTAGCCACTCTGCTGGAAGTGTATC (double strand) [7263 target gap C],1.13
3,TTAGCCACTCTGATGGAAGTGTATC (double strand) [7263 target gap A],1.68

# Test system: ZFP7263 linker TGGGGSQKP (artificial)
# Assay: not given
# Details: not given
row,Sequence,binding signal (normalized ELISA)
1,TTAGCCACTCTGGTGGAAGTGTATC (double strand) [7263 target gap G],0.41
2,TTAGCCACTCTGCTGGAAGTGTATC (double strand) [7263 target gap C],0.05
3,TTAGCCACTCTGATGGAAGTGTATC (double strand) [7263 target gap A],0.06

# Test system: ZFP7263 linker TYPRPLLAKP center linker F2-F3 TGSQKP replaced by TYPRPLLAKP (artificial)
# Assay: ELONA
# Details: normalized ELISA score
row,Sequence,binding signal
1,TTAGCCACTCTGGTGGAAGTGTATC (double strand) [7263 target gap G],3.88
2,TTAGCCACTCTGCTGGAAGTGTATC (double strand) [7263 target gap C],1.27
3,TTAGCCACTCTGATGGAAGTGTATC (double strand) [7263 target gap A],1.95

# Test system: ZFP7264 linker 1e center linker F2-F3 TGSQKP replaced by TVPRPTPPKP (artificial)
# Assay: ELONA
# Details: normalized ELISA score
row,Sequence,binding signal
1,TTAGTTAAAGCGAGCTCCGAATATC (double strand) [7264 target gap A],2.35

# Test system: ZFP7264 linker TGGGGSQKP (artificial)
# Assay: not given
# Details: not given
row,Sequence,binding signal (normalized ELISA)
1,TTAGTTAAAGCGAGCTCCGAATATC (double strand) [7264 target gap A],0.07

# Test system: ZFP7264 linker TLPLPRPKP (artificial)
# Assay: not given
# Details: not given
row,Sequence,binding signal (normalized ELISA)
1,TTAGTTAAAGCGAGCTCCGAATATC (double strand) [7264 target gap A],0.58

# Test system: ZFP7264 (host, center linker TGSQKP) (artificial)
# Assay: not given
# Details: not given
row,Sequence,binding signal (normalized ELISA)
1,TTAGTTAAAGCGAGCTCCGAATATC (double strand) [7264 target gap A],0

# Test system: ZFP7264 linker TSRPRPKP (artificial)
# Assay: not given
# Details: not given
row,Sequence,binding signal (normalized ELISA)
1,TTAGTTAAAGCGAGCTCCGAATATC (double strand) [7264 target gap A],0.52

# Test system: ZFP7264 linker LRQKDERP (artificial)
# Assay: not given
# Details: not given
row,Sequence,binding signal (normalized ELISA)
1,TTAGTTAAAGCGAGCTCCGAATATC (double strand) [7264 target gap A],0.05

# Test system: ZFP7264 linker TGLPKPKP (artificial)
# Assay: not given
# Details: not given
row,Sequence,binding signal (normalized ELISA)
1,TTAGTTAAAGCGAGCTCCGAATATC (double strand) [7264 target gap A],0.19

# Test system: ZFP7264 linker TLPPCFRPKP (artificial)
# Assay: not given
# Details: not given
row,Sequence,binding signal (normalized ELISA)
1,TTAGTTAAAGCGAGCTCCGAATATC (double strand) [7264 target gap A],0.72

# Test system: ZFP7264 linker TGEGGKP (artificial)
# Assay: not given
# Details: not given
row,Sequence,binding signal (normalized ELISA)
1,TTAGTTAAAGCGAGCTCCGAATATC (double strand) [7264 target gap A],0.02

# Test system: ZFP7264 linker TKHGTPKHREDKP (artificial)
# Assay: not given
# Details: not given
row,Sequence,binding signal (normalized ELISA)
1,TTAGTTAAAGCGAGCTCCGAATATC (double strand) [7264 target gap A],0.01
